Experimental data published in publication PMC5814829.
Numbering of substitutions follows the chain as printed.

T1: ScPif1p D677T (Saccharomyces cerevisiae, UniProt P07271 237-780, D677T)
T1 sequence: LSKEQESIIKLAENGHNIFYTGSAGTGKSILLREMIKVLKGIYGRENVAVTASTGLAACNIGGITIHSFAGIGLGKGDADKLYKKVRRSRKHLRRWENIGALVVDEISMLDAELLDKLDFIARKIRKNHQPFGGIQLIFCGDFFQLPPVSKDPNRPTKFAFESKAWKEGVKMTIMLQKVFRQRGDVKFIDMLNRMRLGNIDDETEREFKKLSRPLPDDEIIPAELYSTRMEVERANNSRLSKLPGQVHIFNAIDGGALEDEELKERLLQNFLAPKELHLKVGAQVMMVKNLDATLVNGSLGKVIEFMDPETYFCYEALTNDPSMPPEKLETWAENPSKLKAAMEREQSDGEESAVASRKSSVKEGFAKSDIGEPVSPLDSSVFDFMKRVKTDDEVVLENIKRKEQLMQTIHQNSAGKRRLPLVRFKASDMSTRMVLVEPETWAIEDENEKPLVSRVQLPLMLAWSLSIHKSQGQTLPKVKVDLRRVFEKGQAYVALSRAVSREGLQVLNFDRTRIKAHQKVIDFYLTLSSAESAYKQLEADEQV

T2: ScPif1p K595A (Saccharomyces cerevisiae, UniProt P07271 237-780, K595A)
T2 sequence: T1 sequence with K359A, T441D

T3: ScPif1p (237-780) (Saccharomyces cerevisiae, UniProt P07271 237-780)
T3 sequence: T1 sequence with T441D


Assays:
Test in all cases: fluorescence anisotropy
[1] = molecular target: T1, ScPif1p D677T
[2] = molecular target: T2, ScPif1p K595A
[3] = molecular target: T3, ScPif1p (237-780)

Binder	Kd [1] [nM]	Kd [2] [nM]	Kd [3] [nM]
GTGTGTGTGGTG (ssDNA) [GR12]	10.5 ± 2.6	10.2 ± 1.8	
AGGGTGGGTGGGTGGGT (structured_DNA) [F-G417]			25 ± 5.1
